Test results as given in paper PMC7771068.
Like-named read-outs stand apart in the source and are kept apart here.

Assays:
Assay in all cases: MST
[1] = biological target: T1, A3G-NTD-CTD2 (wild-type NTD fused to soluble CTD2) (Homo sapiens, UniProt Q9HC16 1-384, P200A;L234K;N236A;C243A;P247K;F310K;Q318K;C321A;Q322K;C356A)
[2] = biological target: T1, A3G-NTD-CTD2 (wild-type NTD fused to …); remark: listed apart in the source
A3G-NTD-R24A-CTD2 = A3G-NTD-R24A-CTD2 (Homo sapiens, UniProt Q9HC16 1-384, R24A;P200A;L234K;N236A;C243A;P247K;F310K;Q318K;C321A;Q322K;C356A)
[3] = biological target: T1, A3G-NTD-CTD2 (wild-type NTD fused to …); remark: listed apart in the source

T1 sequence (Q9HC16 whole entry P200A/L234K/N236A/C243A/P247K/F310K/Q318K/C321A/Q322K/C356A, the tested form may be a part): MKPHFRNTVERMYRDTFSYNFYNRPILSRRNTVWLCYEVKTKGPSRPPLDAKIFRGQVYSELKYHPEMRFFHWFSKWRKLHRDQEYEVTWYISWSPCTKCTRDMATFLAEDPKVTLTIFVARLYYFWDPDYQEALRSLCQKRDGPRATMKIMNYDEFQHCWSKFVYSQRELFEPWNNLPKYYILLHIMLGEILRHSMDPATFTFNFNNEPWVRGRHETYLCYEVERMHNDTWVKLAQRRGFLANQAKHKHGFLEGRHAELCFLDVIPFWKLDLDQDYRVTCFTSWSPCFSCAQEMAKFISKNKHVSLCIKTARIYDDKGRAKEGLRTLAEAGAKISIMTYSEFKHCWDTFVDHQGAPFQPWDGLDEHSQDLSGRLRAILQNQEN
Chain of A3G-NTD-R24A-CTD2 (Q9HC16 whole entry R24A/P200A/L234K/N236A/C243A/P247K/F310K/Q318K/C321A/Q322K/C356A, the tested form may be a part): as the sequence (Q9HC16 whole entry P200A/L234K/N236A/C243A/P247K/F310K/Q318K/C321A/Q322K/C356A, the tested form may be a part) above, with R24A counted along it

Question: For AATCCCAATTTTTTTT (ssDNA) [16-nt CCC (5'-TCCC-polyT)], which Kd [1] is on record?
Answer: 6.8 µM

Question: What about the Kd [2] of the same binder?
Answer: 4.9 ± 0.1 µM

Question: What about the Kd (A3G-NTD-R24A-CTD2) of the same binder?
Answer: 24.6 ± 2.7 µM

Question: For AATCCCAAA (ssDNA) [9-nt CCC], which Kd [3] is on record?
Answer: 20.5 µM

Question: Which results are given for AATTCCAATTTTTTTT (ssDNA) [16-nt CC (5'-TCC-polyT)]?
Answer: Kd [2]: 31.4 ± 3.8 µM; Kd (A3G-NTD-R24A-CTD2): 132 ± 2.6 µM
